The results in this text go back to publication PMC8835902, “DNA Polymerase-Parental DNA Interaction Is Essential for Helicase-Polymerase Coupling during Bacteriophage T7 DNA Replication” (International Journal of Molecular Sciences, 2022).

Assay [1] concerns the target T1, K3Dgp5-trx complex (T7 gp5 K545D, K549D, K553D with thioredoxin) (bacteriophage T7 | , UniProt P00581 1-704; P0AA25 1-109 = thioredoxin, D5A | E7A | K545D | K549D | K553D).
T1 construct: bacteriophage T7 gp5 DNA polymerase (D5A, E7A) with the positively charged cleft mutations K545D, K549D, K553D; Mutagenesis on the plasmid encoding WTgp5 (D5A, E7A); also called DNA-K3Dgp5; source: E. coli BL21 (DE3), co-expressed, purified (Heparin HP, MonoQ)
Briefly: native gel or EMSA; supershift: 10 nM fork DNA (2 gaps) pre-incubated with gp5-trx variants (60-100 nM) 15 min at 25 °C, then rising amounts of hexameric EQgp4, 15 min at 25 °C; 20 mM Hepes pH 7.5, 1 mM EDTA, 100 mM KCl, 0.1 mM βME, 5% glycerol, 0.10 mg/mL BSA; 4% polyacrylamide gel; fitted to the Hill equation. The settings on record: both partners purified. A general note: A gel shift assay detects complexes by their altered migration in electrophoresis.

Assay [2] concerns the target T2, WTgp5-trx complex (T7 gp5 DNA polymerase D5A, E7A with thioredoxin) (bacteriophage T7 | , UniProt P00581 1-704; P0AA25 1-109 = thioredoxin, D5A | E7A).
T2 construct: gp5 in pET15b, trxA in pRSFDuet; no tag is mentioned and purification was by heparin and ion exchange; also called DNA-WTgp5; source: E. coli BL21 (DE3), co-expressed, purified (Heparin HP, MonoQ)
Described as above. The settings on record: both partners purified.

B1: T7 gp4 helicase-primase, active site mutant E343Q (enzyme, bacteriophage T7, UniProt P03692 1-566, looked up)
chain: MDNSHDSDSVFLYHIPCDNCGSSDGNSLFSDGHTFCYVCEKWTAGNEDTKERASKRKPSGGKPMTYNVWNFGESNGRYSALTARGISKETCQKAGYWIAKVDGVMYQVADYRDQNGNIVSQKVRDKDKNFKTTGSHKSDALFGKHLWNGGKKIVVTEGEIDMLTVMELQDCKYPVVSLGHGASAAKKTCAANYEYFDQFEQIILMFDMDEAGRKAVEEAAQVLPAGKVRVAVLPCKDANECHLNGHDREIMEQVWNAGPWIPDGVVSALSLRERIREHLSSEESVGLLFSGCTGINDKTLGARGGEVIMVTSGSGMGKSTFVRQQALQWGTAMGKKVGLAMLQESVEETAEDLIGLHNRVRLRQSDSLKREIIENGKFDQWFDELFGNDTFHLYDSFAEAETDRLLAKLAYMRSGLGCDVIILDHISIVVSASGESDERKMIDNLMTKLKGFAKSTGVVLVVICHLKNPDKGKAHEEGRPVSITDLRGSGALRQLSDTIIALERNQQGDMPNLVLVRILKCRFTGDTGIAGYMEYNKETGWLEPSSYSGEEESHSESTDWSNDTDF
notes: bacteriophage T7 gp4 helicase-primase, full-length, with E343Q; modified pET28a with histidine tags and a PreScission site; Added as 'hexameric EQgp4' in the EMSA; also called EQgp4; E343Q gp4; source: E. coli C3013I (T7 Express lysY/Iq), purified (Histrap, MonoQ)
B1: the “Kd with fork DNA (gp4 on fork DNA pre-bound to gp5-trx)” value in assay [1] stood at 6 ± 1 nM; in assay [2] it was 8 ± 1 nM.
